According to the DeepSol protein solubility set:

Test: soluble on expression in E. coli; label from the status in PepcDB or PDB records

Sequence	soluble on expression in E. coli
MPPKVTSELLRQLRQAMRNSEYVTEPIQAYIIPSGDAHQSEYIAPCDCRRAFVSGFDGSAGTAIITEEHAAMWTDGRYFLQAAKQMDSNWTLMKMGLKDTPTQEDWLVSVLPEGSRVGVDPLIIPTDYWKKMAKVLRSAGHHLIPVKENLVDKIWTDRPERPCKPLLTLGLDYTGISWKDKVADLRLKMAERNVMWFVVTALDEIAWLFNLRGSDVEHNPVFFSYAIIGLETIMLFIDGDRIDAPSVKEHLLLDLGLEAEYRIQVHPYKSILSELKALCADLSPREKVWVSDKASYAVSETIPKDHRCCMPYTPICIAKAVKNSAESEGMRRAHIKDAVALCELFNWLEKEVPKGGVTEISAADKAEEFRRQQADFVDLSFPTISSTGPTGAIIHYAPVPETNRTLSLDEVYLIDSGAQYKDGTTDVTRTMHFETPTAYEKECFTYVLKGHIAVSAAVFPTGTKGHLLDSFARSALWDSGLDYLHGTGHGVGSFLNVHEGPCGISYKTFSDEPLEAGMIVTDEPGYYEDGAFGIRIENVVLVVPVKTKYNFNNRGSLTLEPLTLVPIQTKMIDVDSLTDKECDWLNNYHLTCRDVIGKELQKQGRQEALEWLIRETQPISKQH	soluble
MVYNENTPHFYNKSGKETFMSNILFSVFPNENFIDMSLYQFGWEQCQPSHSYGPAARNHYLFHYVISGTGTLMADDTSGITQTYSVKSGQGFMIFPQQITTYIADQKLPWEYVWIEFDGLRVKEILELAGLTKSAPIYHAHSKEMREVLKEEMLYIARNPEQPPFHLIGHLYLFMDALTRSCTREQTNSAGRLRDFYIHEAIAFIEQNFQNDISVEDIAEVCGLNRSYFGKIFKETLGRSPQEFLMNYRMVKATELLKLTQLSISEISNAVGYANPLHFSRAFKNVYGESPRIWRQNHRT	not soluble
MTPTEQAAVRPPLPVKMVIAGGFGVGKTTAVGSISEIVPLTTEAAITEVAAGVDDLTHTPRKTTTTVAMDFGCITIDPTLKLYLFGTPGQDRFGFMWDDLVEGAVGGLVIVDTRRLDDCYAAVDYFEHKQIPFAVALNAFDGRIEHDLDEVRWALDVAERVPVVVFDARERGSVRDALLVVLELALARTGALEHHHHHH	not soluble
MSLMEDVGKEMSKIIQKRDINERYEELVNEVLKDQDVQAFIQANRERLTDEDIRKSYAKLYEFVQEKKKFQVNDPAMIAPGYEPRLMLNFHYIDVTYVPTADLIARQKEEEIRNRVRAMDMPKDVREANLRDFDPSSQGRAKALAEAMQFLREYPATPKEFHKGLYLQGPFGVGKSFLLGAMANALAERGFTTTIVHFPTFTVEMKQAIGRDQVGEKLDAVKKSPILMIDDIGAESMTSWIRDDVLSVILQYRMQEQLVTFFSSNLDLKALEEHLTVTQRGEQEPLKARRIMERVRYLSKEITMTGNDRRNGEGHHHHHH	soluble
MGSDKIHHHHHHMSDLDRATLLDATGVAKSFGAVRALTDASLHVGAGEVVALMGANGAGKSTFVKILTGALRPDAGRVLIRGEVARTGSPAQARRSGLVPVYQEPSLIPDLDVADNLRLGDTPSDAVLHWMNELGINGLRFDDMISDLPLATLRILDLARALASQPDVLLLDEMTAALPTNLVENVLRVVRAQADAGCGVIYISHRFTEIAELCDSATILRDGRTVGDLQIEPGVENRCVELMLGAKLSLDKRDAGALRQNTGVPRLRASQIAVAPTVSDVSFDLYPGEVLGVVALEGQGQDEVFNVLSGHQKPTGGALQVDGTSVSFSHPADAIAAGLSYVPGDRAEALLRERSVRENIALPFSARLRDWGPLKTRHERHRVDHAIEKLQIDTRAQGEVQRLSGGNQQKVTIGRWLAHGVRTLLLFDPTRGIDVRTKRQIYPLVRELAEQGAAVLFYTSELDEIPLACDRAIVIFNGRVVNVVNAADATEEVLMRAAYGLTDVSAAS	not soluble
MENFHFEHRGPRRDRFARERTGRPEGPHRHGHRRGRFGPEGDPGFGPGMHFGRGRGRGGRGRRGDVRSAILLLLTEEPMHGYELIQQIVERSDGVWKPSPGSIYPALSQLEDEGLVLIEKVAGRKTARLTDEGEAFVEANKTELGTPWDDVRESVGRPAEDLRGLIGLLMGAAGQVAAVGDDEQVRRAGEILTEARRAMYRLLAEDDQSEAGKDDTDS	not soluble
MTKQVKIYHNPRCSKSRETLNLLKENGVEPEVVLYLETPADAATLRDLLKILGMNSARELMRQKEDLYKELNLADSSLSEEALIQAMVDNPKLMERPIVVANGKARIGRPPEQVLEIVG	not soluble
MSLITACPRPCAWRSYALGLGLLPLAAQAEFLADSSAHLDLRNFYQLRDYRQHDAPQSQAGNWSQGFVLRLQSGFTGGPLGFGLDATGLLGVKLDSGRGRSNDGTLPFGANSKEPVDDYSHLGLTAKLRYSQTQLQVGILMPQLPVAFRDDVRLLPQTFDGALLTSSEIEGLTLTAGQLWKSRTRESAGSDDMYIMGRDKAHASDEFNLAGATYAFTPRLSASYYYGQLKDIYRQHYLGLLHTLPLGEGLSLRSDLRYFDSGEDGAAISGPVDNRNLNAMLTLRAGAHAFGIGVQKMIGNDAFPVLNGYTTPYVANLMAYQTFTRPQEKSWQLRYDYDFAGLGLPGLNLMTRYVQGRDIDRGAGRADDSEWERNTDLSYVIQSGPLKSVALKWRNITYRSRYGADLDENRFIVNYTLKLWEGHHHHHH	soluble
MGSDDQSAGDRIQKGFQINYMILRDADSGKIIWQENKDFSAPDQEHEARVPVKILDMRAVSREINFSTIESMENFRLDQKVLFKGRIMEEWFFEMGFVGANTTNTWQSTIEAAPESQMMPAKVLNGNVTIQTSFYDNETLITKSVVRLYYILEHHHHHH	not soluble
MSDLKYTVTADVLNVRSGAGTGHSVISKVKQGQVLQVIGQENGWFKVTVNGQTGYVSGDFVTTGGKTGTTVQQGTGTYTVNVSSLNVRTGPSTSHTVLGSVNKGKTVQVVSEVQDWFKINFNGGTGYVSKDFVTKGGSALEHHHHHH	soluble
MSSLRRKWISDPAFKVFKKVLPPLSSTEKEAMEAGSVWWDAELFSGKPNFTTLHHYPAPTLTAEEQAFMDNELETLLDMLDDQKIVKEDRDLPPEVWEYLRKERFFSLIISKEYGGREFSALANSTIVSRIATRSISVAVSVMVPNSLGPGELLSHYGTQEQKDYWLPRLADGTDIPCFALTGPEAGSDAGGIPDQGVVCYGMYDGEEVLGVRVSWNKR	not soluble
IGKVGYRLGFNLSDYKSKITKYDDNATTKLLSSFYPGQVMGEIWGYIADGYYSVDDFEDTSSWKLKEGITSINGYNVRPGDVKFKNLRDDESSTNVITSGDNTFDNPGDRKVIGNTTPRYQYGINLGANYAGFDLNVILQGTGKRDYWISNVLTFPMNGDNFIPLFDGLSDYWMPKDPDNGDWTAVNPNAKYPRLYGNRGNSGSNLRQSDKYLSDASYLRIKNITLSYNLPKKWLSQIFLSQMKAFVSVENVATFTSLPSGIDPERIEWNYPAFRTVSFGINITL	not soluble
MPDEAVDGSTPDQGKKNNNGRGRGQGSGGNRGRGGSTANNNASRRPNPARQNQSSRQPTKVDMKKYERMISAAHTNFSDIPCGQKSIDCDICCKKNDVFGIGSCRHPVCAECVIRMRILGNSKTCPVCRSDIDILSFCTTDDDLANVPLSFKKTAHPDEDRYDIRFSNKIAGTKYEKYLAHVCKICKTDDGERLEFPSFMSLRQHMASRHEQSYCHICTDNLNLFSRERKTYTRDQLQRHMRSGDFDDKSFKGHPQCLFCEQKFLDEENRYRHLRKDHFFCQFCESDGTMTNVFFGKHDGLKKHYKEHHYICETEECREMGIAFANKFELDLHRANEHAERRNLIELGFGQRPSDPGRPIGRGRGLRSNEPPPPPVPRERIAVVQRQVETNPQSDPSQFTTVRSAQSKGVFTSTRSAYTSNQQEFPSLAPQAPPPNVRSSEFPRLNKANKPAAPAAPAVVDHFPSLGDSSSSSSAPPLRIKVPPLVKKRQPPPPAPAPQKAKASSARQNAPREEDDEYISRRDVPQAVVKVNNSLLRFDTVDDRVIPQNAKSNIQMIQRVDQKSAAESSSSAPSSGRLDFPALPAASAPMMPANSSWLNSKNSKIKSGVISSVSVPANYSKATQNKNKKKNKISVPKTEVWSSLGPPPDSAVASVPVETWQDIPLSKEAQLEKEKRERKEDWARKKAEIQARVAAASKDKSNEVDSDSEPEPARPITPPVHHSNIEKSESSEWTMANSKSGDSLKNAQLMANQKKNKKNKNNMEIPSANKVPSSQSSIVPSAPKVDSLIVEKVVAKTEPKNDENQDKPDLWNMPKLPSMTSMFSSFSLSGMFGMGTSYSDSSSMAAPPPGLENVVLTPPPGLGFPSPKSDDISFASAPILSHDDVKAKRERLEAEKQKNQKEAEKEDDGWVTTSKPKNNKKNNKK	not soluble
MGHHHHHHSHLRHKEPGSGSGGGVYWVDSQQKRYVPVKGDHVIGIVTAKSGDIFKVDVGGSEPASLSYLSFEGATKRNRPNVQAISSRL	not soluble
MSLYRIDFNKLRFLICDDNPHMRRILRTLLHSFGTREVYEAEDGATALEMYSHYSPDILITDWEMPIFDGLELAQMIRQPEAKGNPYAPIIMLTAHSEKRRVTLARDAGVTEFLAKPISSKGLYQRILNVVASPREGHHHHHH	not soluble
MSLKLLIEEFIPVEEISEEAKKEKLGNAKPPIFSLHYWWARKPLITARAAVLGALISKENLPMIVGNGDLKTNLLRILRIPKDINEGPRAHTQDPPAEYLKEAIIKTWGEIPTVLDPFAGGGSIPFEALRLGCNAVAVDYNPVAYLILKETLEYPKKYGMKLILEGHHHHHH	not soluble
MGSDKIHHHHHHMSEFDVAVIGAGPAGSSAAIRLAQNGMNVLLVERGDPPGTKNVSGAVLWGNELAKVVPDWERSAPVERYVTRKEVAFLTEKSKIAISFSSEELQNSKSGKIIVRGKFDQWLAKKAKDAGAMLVTGVTVDRLAIDNGKVIGIQQDNDVITADAVVVAEGANPRVLINSGLRPKLSDRDVALGIKETIKLPENVINERFNVDSKSGFASEFVLGFLDDGLLSGGFLYTNKDTVSLGIVASLDRLRANGVTHSYDIMGKFEEHPFIKNLIKDGIPDEYAAHLVPEGGISSMPKLYGNGYLVAGDAAAFTFSNGMVLQGINYAITSGILAADTIIENRNNINENTLAKYVDKLRESYVLSDLYNFNGIQNVTWSDFVQKSLPTLAESVMMSLFDEKGMPKKHLRQIVTDAMKSGHMKYSDLITNGYRVIKRM	not soluble
MEQELISKKELLELTGISYGQLYRWKRKKLIPEEWFIRKSTFTGQETFFPKEKILARIEKIKELKDELSLDELAGMFAPDPAAVVLTKEEVIKRHIVSNVALQWLSDQLGDRQDVSFGQLLSLYIVDRLLRSGEINIEEGKNIWMMFESHYPKLQGKSCELVVLRKMGVTVCLLVEEAAGLYVEEGAKLVARLHVPTYIEELKLTISEG	not soluble
MGSDKIHHHHHHMARETQCNRQTDCAQCPKATEGILVHRKFPKGQHFPPDKCTQNCILFILQGELLVNSEEYPGTTLREGQFILQSIGSKLELLALTDVNYVVYWFNEPPLICEQRYHEILQQSEAPLTYTPLVMTQRITNFMKDICDYLDEQMPCGAFIDLKCQELMYLIICYYPIPQLSKFFYPISSYTESFQYFVMQNYEKVKNVEEFAHLGGYTTTTFRRLFKNMYGVPVYEWILSKKREGILEDLQHTKQRITEISNRYGFDSLSHFAHFCKASFGDSPRALRTRAARGEKITALKTE	not soluble
MGSDKIHHHHHHMTPTAFNTGRVQVNKTIAELRSLGKDARERVPFSQLGQYQPLDRDSNQLMDRIRRLLIPELLPERTRRMAASPFAFFRGTAELMEADLRQQPNSTIETFVCGDAHIGNFGFYASPERRLLFDLNDFDEAGINPWEWDLKRLLVSVLLAAQANGIKEKKIKQFLPTVAASYRKSMKQMFTQTTLARFYPLNDVEKLIQASALTDADSQLLMTIINRASKRDSEQVVRKFTTLDSRGNLCFRENAPKTTHVTDDVTTHIATYFAAYRQTVRPDVNLLLSQYHLTDVVRHSVGVGSFGSRCYLVLLTSIDGSHLVLQIKEALPTRQQGSQTLAQLTVAQEQTEGQRIVDCQKILQSASDSFLGYFAGNQHSFYVRQFRDMKESIDLTQLDWGQLQTYANTCAWTLAIAHCQSPTAAMIRGYIGGGKQFDEQLAAFASAYAQQVQTDYESFVAYRLPTKQP	not soluble
